In paper PMC2736913:

Molecular target: Protein encoded by the control plasmid pGBKT7-53
Test: two-hybrid

Q: How did the α-gal activity, fold over baseline (fold over baseline) turn out when “Protein encoded by the control plasmid pGADT7-T (domain or fragment)” was run?
A: Its α-gal activity, fold over baseline (fold over baseline) is greater than 35000.
